The supplement of paper PMC10126150
± gives the standard deviation of the averaged measurements.

System: ATP
Experiment: switch fluorescence ratio, 500 uM ATP over buffer (Cy3 cluster intensity, sum of 5 cycles each) (fold (ratio)); higher = stronger signal-on switching upon ATP binding; sequences stand for … in TCGTCGGCAGCGTCAGATGTGTATAAGAGACAGTTTTTTTTTTTTTTTTTTTTTTTTT…TC
Details: aptamer strand: ATP DNA aptamer (quencher-CACCTGGGGGAGTATTGCGGAGGAAGG + anchor), 100 nM annealed; ATP concentration: 500 uM
Outline: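 For every switch-domain sequence, the fluorescence ratio is the mean of per-cluster values, each being summed target-cycle Cy3 intensity over summed buffer-cycle Cy3 intensity. Clusters outside 100-1000 RFU were excluded. On a modified Illumina MiSeq flow-cell, the Cy3-labelled switching-strand clusters were annealed to 100 nM quencher-labelled ATP aptamer, imaged in selection buffer and then after 15 min with 500 uM ATP at 22 °C. Five such cycles were run, with NaOH stripping and re-annealing between them.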
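Further: ATP exposure 15 min at 22 °C before imaging.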

Sequence	switch fluorescence ratio
TTTGAGCCCC	1.04 ± 0.1
TTTGAGGCAT	1.71 ± 1.2
TTTGAGTCAG	0.994 ± 0.035
TTTGAGTCTT	1 ± 0.039
TTTGATACCC	0.991 ± 0.064
TTTGATACTC	1.15 ± 0.091
TTTGATACTG	1.06 ± 0.11
TTTGATAGTC	0.966 ± 0.07
TTTGATATGT	0.996 ± 0.039
TTTGATCTT	0.974 ± 0.03
TTTGATGCAG	0.993 ± 0.032
TTTGATGTGT	0.997 ± 0.032
TTTGCAATGT	1.29 ± 0.1
TTTGCAGCTT	1.49 ± 0.87
TTTGCATGCC	1.05 ± 0.085
TTTGCATTGT	1.03 ± 0.035
TTTGCCCCGG	1.12 ± 0.12
TTTGCCGGAG	1.08 ± 0.065
TTTGCCTCCG	2.15 ± 1.7
TTTGCCTCGG	0.984 ± 0.031
TTTGCGG	1.009 ± 0.0082
TTTGCGGGTG	1.6 ± 0.91
TTTGCGTTTT	1.01 ± 0.025

Sequence	switch fluorescence ratio
TTTGCTGGGA	0.9812 ± 0.0098
TTTGCTGGTT	1.02 ± 0.071
TTTGCTTAAC	1.07 ± 0.13
TTTGGAAA	1.01 ± 0.033
TTTGGAAATG	1.0077 ± 0.00015
TTTGGAAGGG	1 ± 0.026
TTTGGACCGA	1.03 ± 0.016
TTTGGACGCT	1.04 ± 0.038
TTTGGAGAAT	1.02 ± 0.025
TTTGGAGAGA	1.001 ± 0.01
TTTGGAGATG	1.02 ± 0.023
TTTGGAGCTT	4.01 ± 2.7
TTTGGAGGAG	0.997 ± 0.048
TTTGGAGTCT	0.982 ± 0.031
TTTGGAGTTG	0.987 ± 0.064
TTTGGATAGA	0.998 ± 0.025
TTTGGATCCT	1.02 ± 0.019
TTTGGATTCC	0.998 ± 0.034
TTTGGCCGCT	0.985 ± 0.011
TTTGGCGAGT	1.01 ± 0.021
TTTGGCGCGA	1.43 ± 0.58
TTTGGCTAAG	0.976 ± 0.027
TTTGGCTGAG	1.004 ± 0.009

Sequence	switch fluorescence ratio
TTTGGCTTCG	1.042 ± 0.0038
TTTGGCTTCT	1.04 ± 0.073
TTTGGCTTTA	0.977 ± 0.017
TTTGGGACAT	1.01 ± 0.025
TTTGGGAGAT	0.951 ± 0.023
TTTGGGATAG	1.01 ± 0.049
TTTGGGATCA	0.9846 ± 0.0073
TTTGGGATTC	0.979 ± 0.028
TTTGGGCACG	1.05 ± 0.017
TTTGGGCAGT	1 ± 0.017
TTTGGGCATT	1.04 ± 0.035
TTTGGGCCTG	1.001 ± 0.0022
TTTGGGCTGC	1.28 ± 0.41
TTTGGGCTGG	1.01 ± 0.06
TTTGGGGAAC	1.02 ± 0.035
TTTGGGGATG	1 ± 0.033
TTTGGGGCCC	1.03 ± 0.041
TTTGGGGCCT	1.06 ± 0.15
TTTGGGGCTG	1.04 ± 0.11
TTTGGGGGAC	0.984 ± 0.05
TTTGGGGGCT	1.01 ± 0.04
TTTGGGGTT	1.02 ± 0.018
TTTGGGGTTA	0.996 ± 0.034

Sequence	switch fluorescence ratio
TTTGGGTCTG	0.992 ± 0.026
TTTGGGTGGC	1.03 ± 0.036
TTTGGGTTGA	1.03 ± 0.017
TTTGGTACAC	1.01 ± 0.021
TTTGGTCTCA	1 ± 0.02
TTTGGTGGTC	0.971 ± 0.022
TTTGGTTAC	1.05 ± 0.023
TTTGGTTACA	1.01 ± 0.04
TTTGGTTCGC	0.971 ± 0.037
TTTGGTTGAT	0.9967 ± 0.0087
TTTGGTTGCC	1.05 ± 0.085
TTTGGTTTTT	0.999 ± 0.031
TTTGTAAATA	1.008 ± 0.0069
TTTGTAAGAA	1.009 ± 0.006
TTTGTACCCT	1.064 ± 0.0021
TTTGTAGGGG	0.981 ± 0.016
TTTGTATCAT	1.017 ± 0.0076
TTTGTATGTT	0.991 ± 0.051
TTTGTATTCA	1.01 ± 0.06
TTTGTCAGGG	0.992 ± 0.062
TTTGTCCAGT	0.991 ± 0.041
TTTGTCGTCG	1.004 ± 0.01
TTTGTCTATA	1 ± 0.017

Sequence	switch fluorescence ratio
TTTGTCTGGA	0.991 ± 0.032
TTTGTGACTA	1.01 ± 0.049
TTTGTGCCTC	0.9528 ± 0.0093
TTTGTGGATT	1.06 ± 0.069
TTTGTGTATG	0.9701 ± 0.0032
TTTGTGTTGG	0.993 ± 0.027
TTTGTTAGTG	0.972 ± 0.021
TTTGTTCTGT	1.01 ± 0.018
TTTGTTGATT	0.973 ± 0.022
TTTGTTGCCA	0.988 ± 0.0019
TTTGTTGCTC	1 ± 0.03
TTTGTTGGGA	1.02 ± 0.013
TTTGTTGTAA	1.01 ± 0.034
TTTGTTGTCA	0.974 ± 0.016
TTTGTTGTGT	1.02 ± 0.025
TTTGTTGTTG	0.984 ± 0.03
TTTGTTTCCA	0.962 ± 0.012
TTTGTTTTA	1.01 ± 0.019
TTTGTTTTCA	0.989 ± 0.034
TTTGTTTTGA	1.02 ± 0.027
TTTTAAAAAC	1.05 ± 0.049
TTTTAAAACA	1.02 ± 0.029
TTTTAAAAGA	0.995 ± 0.027

Sequence	switch fluorescence ratio
TTTTAAAATG	1.01 ± 0.032
TTTTAAATAA	1.01 ± 0.026
TTTTAAATGT	1.04 ± 0.029
TTTTAAATTG	0.964 ± 0.023
TTTTAACATT	1.06 ± 0.081
TTTTAACTCG	1.01 ± 0.023
TTTTAAGAAT	1.005 ± 0.0078
TTTTAAGCAG	1.05 ± 0.036
TTTTAAGCCC	1.03 ± 0.046
TTTTAAGCGG	0.999 ± 0.015
TTTTAATATT	1.05 ± 0.11
TTTTAATCAT	1.6 ± 0.88
TTTTAATTCG	1.057 ± 0.0035
TTTTAATTT	0.997 ± 0.042
TTTTAATTTT	0.998 ± 0.029
TTTTACAAGG	0.983 ± 0.031
TTTTACCGAG	1.047 ± 0.0032
TTTTACCGTA	1.04 ± 0.034
TTTTACGTGA	1.057 ± 0.0092
TTTTACTATG	0.9893 ± 0.0041
TTTTACTCGA	1.03 ± 0.014
TTTTACTTAA	1.28 ± 0.37
TTTTACTTTA	1.06 ± 0.032

Sequence	switch fluorescence ratio
TTTTAGAGCC	1.04 ± 0.043
TTTTAGAGTG	1 ± 0.036
TTTTAGATCT	1.02 ± 0.016
TTTTAGGACC	1 ± 0.025
TTTTAGGAGC	0.985 ± 0.023
TTTTAGGAT	1.004 ± 0.0021
TTTTAGGATT	1.016 ± 0.0018
TTTTAGGGCT	0.989 ± 0.03
TTTTAGGGTC	1.11 ± 0.2
TTTTAGGTAT	1.02 ± 0.038
TTTTAGGTTA	0.986 ± 0.027
TTTTAGGTTT	1.06 ± 0.16
TTTTAGTAAC	1.02 ± 0.017
TTTTAGTCTT	1.04 ± 0.078
TTTTAGTTAC	1.073 ± 0.0044
TTTTAGTTAT	1.04 ± 0.037
TTTTAGTTCG	1 ± 0.028
TTTTATAAAG	1 ± 0.022
TTTTATAGCG	0.99918 ± 0.00023
